Measured values from patent US20200331998A1.

Biological target: UCART19 CAR (anti-CD19 chimeric antigen receptor with a 4G7-derived scFv, on UCART19 cells)
Test: flow cytometry blocking assay: fresh UCART19 cells pre-incubated with unconjugated antibody, then stained with labelled soluble CD19-hFc; ligand: m14

Chain of UCART19 CAR (anti-CD19 chimeric antigen receptor with a 4G7-derived scFv, on UCART19 cells) (chain, as listed by the source mutant): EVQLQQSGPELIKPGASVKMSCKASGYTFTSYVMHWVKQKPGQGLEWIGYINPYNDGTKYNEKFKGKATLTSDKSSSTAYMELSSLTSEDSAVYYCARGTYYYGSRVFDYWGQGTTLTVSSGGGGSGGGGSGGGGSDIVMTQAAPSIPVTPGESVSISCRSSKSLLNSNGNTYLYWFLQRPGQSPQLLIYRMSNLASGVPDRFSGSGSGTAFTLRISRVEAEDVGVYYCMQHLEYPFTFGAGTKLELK

CAR+ (% cells stained by APC-sCD19) at 0.2 µg/mL antibody: 52.4%
CAR+ (% cells stained by APC-sCD19) at 0.39 µg/mL antibody: 52.9%
CAR+ (% cells stained by APC-sCD19) at 0.78 µg/mL antibody: 53.4%
CAR+ (% cells stained by APC-sCD19) at 1.56 µg/mL antibody: 52.7%
CAR+ (% cells stained by APC-sCD19) at 3.125 µg/mL antibody: 52.9%
CAR+ (% cells stained by APC-sCD19) at 6.25 µg/mL antibody: 52.6%
CAR+ (% cells stained by APC-sCD19) at 12.5 µg/mL antibody: 52.3%
CAR+ (% cells stained by APC-sCD19) at 25 µg/mL antibody: 52%
CAR+ (% cells stained by APC-sCD19) at 50 µg/mL antibody: 53.3%
CAR+ (% cells stained by APC-sCD19) at 100 µg/mL antibody: 54.8%
Substance: Isotype Control (antibody)
